Experimental data as given in PMC9832833, “Mitogen-activated protein kinase 14-mediated phosphorylation of MaMYB4 negatively regulates banana fruit ripening”.

Experiments:
[1] = biological target: T1, MBP-MaMPK14 (Musa acuminata (banana), UniProt A0A804IKS6 1-366); test: EMSA; MBP-MaMPK14 alone; EMSA buffer not stated (kit per cited Fan et al.); kinase preincubation in 20 mM Tris-HCl, 20 mM MgCl2, 100 mM NaCl, 10 mM ATP, 2 mM DTT, 0.5 h at 30 C; pH not; details: protein: recombinant; tags: MBP (N-term, pMAL-c2X); label: biotin; blunt
T1 sequence: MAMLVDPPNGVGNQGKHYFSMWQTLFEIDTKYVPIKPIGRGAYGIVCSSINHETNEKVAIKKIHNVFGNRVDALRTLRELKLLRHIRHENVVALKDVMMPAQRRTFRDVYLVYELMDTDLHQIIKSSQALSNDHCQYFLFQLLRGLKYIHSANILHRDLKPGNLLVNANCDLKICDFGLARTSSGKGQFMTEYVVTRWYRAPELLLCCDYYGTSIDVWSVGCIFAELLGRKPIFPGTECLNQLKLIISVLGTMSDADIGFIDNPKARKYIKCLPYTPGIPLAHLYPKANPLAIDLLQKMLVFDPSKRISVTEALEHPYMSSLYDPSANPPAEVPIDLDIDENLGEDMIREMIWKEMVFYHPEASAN

[2] = biological target: GST-MaMYB4 (Musa acuminata (banana), UniProt A0A804HW33 1-241); test: EMSA; without MBP-MaMPK14; EMSA buffer not stated (kit per cited Fan et al.); kinase preincubation in 20 mM Tris-HCl, 20 mM MgCl2, 100 mM NaCl, 10 mM ATP, 2 mM DTT, 0.5 h at 30 C; pH not; details: protein: recombinant; tags: GST (N-term, pGEX-4T-1); label: biotin; blunt
Chain of GST-MaMYB4 (A0A804HW33 entry or part of it): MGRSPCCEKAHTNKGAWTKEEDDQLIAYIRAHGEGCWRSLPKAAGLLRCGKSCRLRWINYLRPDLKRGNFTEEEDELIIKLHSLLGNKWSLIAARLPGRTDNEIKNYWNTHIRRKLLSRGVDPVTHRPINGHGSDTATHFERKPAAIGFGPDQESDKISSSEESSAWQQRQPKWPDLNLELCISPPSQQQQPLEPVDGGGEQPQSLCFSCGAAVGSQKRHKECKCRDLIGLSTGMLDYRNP

B1: MaACS1 promoter probe (dsDNA)
DNA 1: CCAAAAACAGGGTAGGTGGATGGCTTACATGCTCACCTAATAATTTATTT
DNA 2: AAATAAATTATTAGGTGAGCATGTAAGCCATCCACCTACCCTGTTTTTGG
**Q.** Does B1 bind [1]?
**A.** no binding

**Q.** Does B1 bind [2]?
**A.** binds
